Measured values reported in US20150361454.

Target: Prochlorococcus marinus MED4 aldehyde decarbonylase (MED4_ADC), wild type

B1: Prochlorococcus marinus MED4 acyl-ACP reductase (MED4_AAR), wild type (protein)
chain: MAFGLIGHSTSFEDAKRKASLLGFDHIADGDLDVWCTAPPQLVENVEVKSAIGISIEGSYIDSCFVPEMLSRFKTARRKVLNAMELAQKKGINITALGGFTSIIFENFNLLQHKQIRNTSLEWERFTTGNTHTAWVICRQLEMNAPKIGIDLKSATVAVVGATGDIGSAVCRWLINKTGIGELLLVARQKEPLDSLQKELDGGTIKNLDEALPEADIVVWVASMPKTMEIDANNLKQPCLMIDGGYPKNLDEKFQGNNIHVVKGGIVRFFNDIGWNMMELAEMQNPQREMFACFAEAMILEFEKCHTNFSWGRNNISLEKMEFIGAASVKHGFSAIGLDKHPKVLAV
- products detected on coexpression in E. coli (AAR catalytic activity): when only MED4_AAR is expressed in E. coli no products are detected, and when MED4_AAR and ADC are coexpressed in E. coli the only products detected are alkanes
